# According to patent US20240400718A1:
# How the values were obtained:
# [1] = target: #231: CAR with VL-L1-VH scFv, Human 3rd-generation; experiment: subclone supernatant on HEK293T cells transiently expressing the scFv; % positive cells
# [2] = target: #231: CAR with VL-L1-VH scFv, Human 3rd-generation; experiment: flow cytometry on CAR-T cells; PE-labeled secondary antibody; PE-positive cells / total cells
# #264: VH-L1-VL CAR-T = experiment: as above
# #371: VL-L2-VH CAR-T = experiment: as above
# #628: VH-L2-VL CAR-T = experiment: as above
# #651: VH-L2-VL CAR-T = experiment: as above
# [3] = target: S#017: CAR with VH-L2-VL scFv, Human 3rd-generation_hIL7_hCCL19_HSVtk; experiment: as above
# S#027: VH-L1-VL CAR-T = experiment: as above
# [4] = target: S#031: CAR with VH-L1-VL scFv, Human 3rd-generation_hIL7_hCCL19_HSVtk; experiment: as above
# S#050: VH-L1-VL CAR-T = experiment: as above
# S#066: VL-L2-VH CAR-T = experiment: as above
# [5] = target: S#067: CAR with VL-L1-VH scFv, Human 2nd-generation (4-1BB)_hIL7_hCCL19_HSVtk; experiment: as above
# S#074: VL-L2-VH CAR-T = experiment: as above
# [6] = target: S#075: CAR with VL-L1-VH scFv, Human 2nd-generation (4-1BB)_hIL7_hCCL19_HSVtk; experiment: as above
# S#076: VH-L2-VL CAR-T = experiment: as above
# S#084: VL-L2-VH CAR-T = experiment: as above
# S#085: VL-L1-VH CAR-T = experiment: as above
# S#097: VL-L2-VH CAR-T = experiment: as above
# S#104: VL-L1-VH CAR-T = experiment: as above
# S#074: VL-L2-VH CAR-T, sequence (main, as listed by the source): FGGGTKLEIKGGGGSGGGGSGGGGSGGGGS
# #651: VH-L2-VL CAR-T, sequence (main, as listed by the source): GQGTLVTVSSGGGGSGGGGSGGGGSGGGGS
# #231: CAR with VL-L1-VH scFv, Human 3rd-generation, sequence (main, as listed by the source): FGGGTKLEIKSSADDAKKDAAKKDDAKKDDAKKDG
# #371: VL-L2-VH CAR-T, sequence (main, as listed by the source): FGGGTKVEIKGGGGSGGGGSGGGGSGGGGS
Binder,Positive (%) [1],Reactivity (%) [2],Reactivity (%) (#264: VH-L1-VL CAR-T),Reactivity (%) (#371: VL-L2-VH CAR-T),Reactivity (%) (#628: VH-L2-VL CAR-T),Reactivity (%) (#651: VH-L2-VL CAR-T),Reactivity (%) [3],Reactivity (%) (S#027: VH-L1-VL CAR-T),Reactivity (%) [4],Reactivity (%) (S#050: VH-L1-VL CAR-T),Reactivity (%) (S#066: VL-L2-VH CAR-T),Reactivity (%) [5],Reactivity (%) (S#074: VL-L2-VH CAR-T),Reactivity (%) [6],Reactivity (%) (S#076: VH-L2-VL CAR-T),Reactivity (%) (S#084: VL-L2-VH CAR-T),Reactivity (%) (S#085: VL-L1-VH CAR-T),Reactivity (%) (S#097: VL-L2-VH CAR-T),Reactivity (%) (S#104: VL-L1-VH CAR-T)
"3E7-C1 (antibody, V domains shown) VH: QVQMKESGPGLVQPSETLSLTCTVSGFSLTSYGVSWVRQPSGKGPEWMGRLWNDGDTAYNSALKSRLSISRDTSKNQVFLKMNSLQTDDTGTYYCTTMNGYKDYWGQGVMVTVSS VL: TSYELIQPPSASVTLGNTVSLTCVGDELPKRYAYWYQQKPDQSIVRVIYEDSKRPSGISDRFSGSSSGTTATLTIRDAQAEDEADYYCHSTYSDDKLRIFGGGTKLTVLG",24.5%,69.6%,0%,0%,0%,0.1%,0%,0%,2.2%,0.1%,0.1%,41%,0.1%,25.9%,0.1%,0%,41.4%,0%,21.5%
"4B9-B11 (antibody, V domains shown) VH: QMQLKESGPGLVQPSETLSLTCTVSGFSLTSYSVSWVRQPSGKGPEWMGRMYYDGDTAYNSALKSRLSISRDTSKNQVFLKMNSLQTDDTGTYYCTRSIGAEDYWGQGVMVTVSS VL: TSYELIQPPSASVTLGNTVSLTCVGDELPKRYAYWYQQKPDQSIVRVIYEDSKRPSGISDRFSGSSSGTTATLTIRDAQNEDEADYYCHSTYSDDKLRIFGGGTKLTVLG",60%,74.6%,0%,0.1%,0.2%,0.2%,0%,1%,9.7%,1.1%,0.1%,41.5%,1.4%,35.7%,0.2%,0.1%,49.6%,0.1%,29.1%
"3A4-A10-7 (antibody, V domains shown) VH: QVQLQQSGAALVKPGASVKMSCKASGYTFTDCWVSWVKQSHGKSLEWIGEIHPNSGTTNFNEKFKGKATLTVDKSTSTAYMELSRLTSEDSAIYYCTRAYGGYPFDYWGQGVMVTVSS VL: ADLVLTQPKSVSTSLESTVKLSCKLNSGNIGRYYMHWYQQHEGRSPTNMIYRDDKRPDGVPDRFSGSIDSSSNSAFLTINNVQTEDEAIYFCHSYDSSINIFGGGTKLTVLG",–,23.9%,36.7%,0.2%,0.1%,0.2%,0%,45.7%,45.3%,18.5%,0.2%,22.3%,0.2%,12.3%,0.2%,0.1%,2.2%,0.1%,5.2%
"2D12-B12 (antibody, V domains shown) VH: EVKLVESGGGLVQPGRSLKLSCAASGFNFNDYWMGWVRQAPGKGLEWIGEIKKDSSIINYIPSLKDKFTISRDNAQNTLYLQMSKLGSEDTAIYYCARGVEYYGYHYWGQGTLVTVSS VL: DIVMTQSPSSLAVSAGETVTINCKSSQSLLYSGNQKNYLAWYQQKPGQSPKLLIYWASTRHSGVPARFIGSGSGSDFTLTISSVQAEDLAIYCCQQYYDIPYTFGAGTKLELK",–,67.4%,11.1%,0.2%,0.2%,0.4%,0%,28.4%,64.6%,14.5%,0.9%,34.9%,0.8%,15%,0.2%,0.3%,0.8%,0.3%,13.4%
